# Experimental data taken from the supplement of paper PMC10724198.
# ± gives the standard deviation of the averaged measurements.
# System: Saccharomyces cerevisiae
# Experiment: protein stability index of tFT-peptide fusion (C-terminal peptide) (PSI (0-1 scale)); higher = more stable (slower turnover)
# Conditions: genetic background: wild type; temperature: 30 C
# 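Further: PSI is a weighted mean of sequencing reads over stability bins, variants kept only with over 10 reads, mCherry proximal and sfGFP distal, peptide attached via GGGS linker.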
row,Sequence,protein stability index
1,RSRGSRNGKWVW,0.703 ± 0.02
2,RSRRDTDFGLLI,0.717 ± 0.11
3,RSSDFASDRGWT,0.67 ± 0.028
4,RSSLYLDVVLSF,0.709 ± 0.097
5,RSSRRLAGPVSS,0.639 ± 0.06
6,RSSSLRRGIGQR,0.688 ± 0.071
7,RSTDKLLGLKKM,0.652 ± 0.073
8,RSTVFCSTFVHD,0.672 ± 0.014
9,RSVGPPTLPTHP,0.666 ± 0.023
10,RSWCAGMAGRRR,0.6626 ± 0.0043
11,RSWGRVCFGGVV,0.657 ± 0.054
12,RTGTGTRTRPSR,0.701 ± 0.066
13,RTKENYKRRKEK,0.702 ± 0.12
14,RTLEIYRGLTNE,0.648 ± 0.094
15,RTPQLSVFDLGI,0.7957 ± 0.0039
16,RTRRGRIGEIGP,0.703 ± 0.037
17,RTRTGRPKSPLH,0.6354 ± 0.0052
18,RTSLGFSPLIHQ,0.6818 ± 0.0057
19,RTVTKGTTFKVR,0.671 ± 0.057
20,RTWGGKKHKKRK,0.716 ± 0.014
21,RVAWFSSNCFAV,0.571 ± 0.061
22,RVDFRLPVYLGI,0.61 ± 0.015
23,RVEGGWGEAWRE,0.803 ± 0.075

row,Sequence,protein stability index
1,RVEGKNNKEVCI,0.742 ± 0.079
2,RVESRFSGTDSF,0.708 ± 0.041
3,RVGPLLLTAGPR,0.644 ± 0.029
4,RVGQINKFLPLE,0.682 ± 0.071
5,RVGSGCFVGIFC,0.577 ± 0.024
6,RVKGCYGPGSGI,0.685 ± 0.066
7,RVLGEGKCCIRV,0.6063 ± 0.0056
8,RVLRAELCLHEI,0.687 ± 0.065
9,RVLSAASATRMT,0.619 ± 0.013
10,RVLSQAGSYSLC,0.587 ± 0.019
11,RVLSWSGRQSWC,0.668 ± 0.045
12,RVNERNAEAGGD,0.641 ± 0.043
13,RVPLFPIKMGLG,0.591 ± 0.035
14,RVPPSRLSLPLS,0.6951 ± 0.0043
15,RVRAITRKCGQY,0.656 ± 0.051
16,RVRASGIGRFVE,0.625 ± 0.033
17,RVRGTLMLRSYG,0.64 ± 0.037
18,RVSIPALKEIAS,0.737 ± 0.036
19,RVSLSHPDRCAG,0.7264 ± 0.0025
20,RVSRSCCATGEG,0.599 ± 0.019
21,RVSSAAGGSIDL,0.738 ± 0.1
22,RVSVRGLESGVC,0.665 ± 0.026
23,RVSWGSTRLSRA,0.6427 ± 0.0064

row,Sequence,protein stability index
1,RVVMIYAQWCLP,0.623 ± 0.011
2,RVWEGGGGGDGC,0.664 ± 0.047
3,RVWEGGRGGDGC,0.676 ± 0.024
4,RVWERGGGGDGC,0.645 ± 0.049
5,RWGCHFWVGFVG,0.544 ± 0.046
6,RWIWTRESTFSN,0.705 ± 0.016
7,RWVGVGPEGGVA,0.678 ± 0.068
8,RYFCPVLGPVNF,0.652 ± 0.046
9,RYFSFNVSSCLD,0.767 ± 0.048
10,RYGYCVPNVMRS,0.778 ± 0.11
11,RYRRQESYVIIK,0.766 ± 0.13
12,SAACQRWGYLRV,0.68781 ± 0.00045
13,SAERLKIVNDRI,0.753 ± 0.055
14,SAFLRRFLFFQW,0.572 ± 0.035
15,SALPPSRLPRSP,0.713 ± 0.049
16,SAMSFTSRGVRH,0.698 ± 0.011
17,SAPLLLPPLSSP,0.713 ± 0.023
18,SAPPPSPAPSPY,0.677 ± 0.023
19,SARDVPPPPLTP,0.733 ± 0.018
20,SASRSLFLSRSP,0.6703 ± 0.0023
21,SASWARRSLPIW,0.729 ± 0.045
22,SATIRDILHCRF,0.8435 ± 0.0021
23,SAVHRSVPMGGG,0.666 ± 0.032

row,Sequence,protein stability index
1,SAVSVATVVWSV,0.705 ± 0.092
2,SCEERVGEKVMG,0.6398 ± 0.0014
3,SCFEFGALSSPI,0.753 ± 0.034
4,SCGWRGGWWVMG,0.691 ± 0.072
5,SCLPSDRLTYLP,0.714 ± 0.014
6,SCLRFCSFGSPF,0.757 ± 0.12
7,SCLYPTQILART,0.631 ± 0.017
8,SCPPRLVFPRPS,0.66 ± 0.034
9,SCRVSFLFFLFE,0.562 ± 0.016
10,SCTPEDGRVRYT,0.66 ± 0.048
11,SDCPYVYVRVRD,0.69 ± 0.02
12,SDDPPLSLVISL,0.754 ± 0.02
13,SDMCLGRVFCFL,0.63 ± 0.069
14,SDSPSAPPSAYH,0.62 ± 0.058
15,SDVCVYVIRDIG,0.565 ± 0.068
16,SDVFGGVLSFGF,0.6613 ± 0.0008
17,SEAKRMSGSSAN,0.635 ± 0.041
18,SEICGAPLARLR,0.707 ± 0.034
19,SEILFRSSPFPI,0.721 ± 0.09
20,SELEADKRIKRK,0.739 ± 0.094
21,SEPADGRDRMAE,0.6885 ± 0.0054
22,SERNENKTGKVQ,0.747 ± 0.11
23,SESKGAMCQRNA,0.6475 ± 0.0054

row,Sequence,protein stability index
1,SETMFRLVADIT,0.715 ± 0.011
2,SFACVYVPPALF,0.712 ± 0.025
3,SFCHWRFSFPKC,0.666 ± 0.04
4,SFFGYPCFLLSI,0.54 ± 0.026
5,SFFRFRIPLFPS,0.669 ± 0.065
6,SFFSVQIQFGLS,0.617 ± 0.012
7,SFFVTVAGPFQI,0.686 ± 0.012
8,SFGIGFFATRGF,0.676 ± 0.031
9,SFGLRCPASRGS,0.648 ± 0.052
10,SFGPQFLAPVFS,0.706 ± 0.031
11,SFGSVFGGRWCV,0.672 ± 0.035
12,SFKSCMCLFCGV,0.659 ± 0.034
13,SFLAHSFLPLPP,0.631 ± 0.069
14,SFLLPTLVRLSH,0.65 ± 0.022
15,SFLPPLFPHPPP,0.841 ± 0.031
16,SFLRTRPHAPLP,0.6363 ± 0.0021
17,SFLSLYRLTPGR,0.655 ± 0.048
18,SFLVLRGSGGKW,0.713 ± 0.082
19,SFLVSALASSLA,0.652 ± 0.019
20,SFNHAKPPLHPA,0.683 ± 0.03
21,SFNVFKINSITV,0.562 ± 0.019
22,SFPHSFLFPLFP,0.751 ± 0.09
23,SFPLSPAFPSFL,0.744 ± 0.025

row,Sequence,protein stability index
1,SFPPPLPPSPTP,0.697 ± 0.036
2,SFPRPTSALSLN,0.604 ± 0.075
3,SFPRYRWRAATE,0.6704 ± 0.0021
4,SFPSLLRPPHFS,0.706 ± 0.041
5,SFPVPFPRFFPP,0.714 ± 0.03
6,SFRDRHRRLCDL,0.596 ± 0.035
7,SFRFFVSGFVVL,0.531 ± 0.009
8,SFRLRSLVFGFF,0.597 ± 0.067
9,SFRQSRLKRRGY,0.672 ± 0.15
10,SFSACGEPVPPG,0.661 ± 0.0077
11,SFSFPFFFWGLL,0.592 ± 0.0061
12,SFSIPTCSVPLT,0.687 ± 0.096
13,SFSPLRLPPSLL,0.724 ± 0.049
14,SGAGVGWGCSSV,0.635 ± 0.047
15,SGAGVNWGVGWG,0.714 ± 0.029
16,SGALSDVCVMLL,0.652 ± 0.026
17,SGAPAQLSLSSL,0.6568 ± 0.0032
18,SGCPGPNVPRVP,0.705 ± 0.014
19,SGDGGVGHWVGG,0.676 ± 0.025
20,SGEVMGAMVLHE,0.773 ± 0.12
21,SGFFGFLLGAYG,0.5876 ± 0.0031
22,SGFLLVLRRPRE,0.655 ± 0.05
23,SGGGGWVVGGVA,0.663 ± 0.011

row,Sequence,protein stability index
1,SGGTDMLALRVR,0.632 ± 0.062
2,SGHRPPRVAVDS,0.66 ± 0.044
3,SGIWLKRVTMYR,0.7027 ± 0.0047
4,SGKGRRLVLGSS,0.6895 ± 0.0039
5,SGKVNNKEGKWK,0.686 ± 0.015
6,SGLAARFGLPIR,0.674 ± 0.016
7,SGLPALPRPVWP,0.491 ± 0.076
8,SGLPVPFSALRS,0.718 ± 0.049
9,SGLRQGRHVYPA,0.682 ± 0.011
10,SGPAVLPTFVSP,0.65 ± 0.077
11,SGPGGVGPTGGI,0.6585 ± 0.0055
12,SGPLPCPPLPAP,0.676 ± 0.016
13,SGRIASQACLIW,0.671 ± 0.045
14,SGRRRAPPAPSP,0.732 ± 0.037
15,SGRSQERMYARW,0.656 ± 0.012
16,SGRVRPNSRASP,0.698 ± 0.073
17,SGSAPFLRTSKL,0.685 ± 0.061
18,SGSPVFLDPPLS,0.698 ± 0.015
19,SGTSDDWWPGVA,0.785 ± 0.038
20,SGVCGRVGGGLR,0.622 ± 0.047
21,SGVLASSCPSSC,0.659 ± 0.016
22,SGVVGLGCVPWF,0.857 ± 0.2
